Reference: PMC3836723, “Translation Initiation Factors eIF3 and HCR1 Control Translation Termination and Stop Codon Read-Through in Yeast Cells” (PLoS Genetics, 2013)

Key:
[1] = biological target: T1, Myc-tagged RLI1 (yeast, UniProt Q03195 1-608); assay: co-IP; WCE of yeast YDH353 (chromosomal Myc-tagged RLI1), 500 µg total protein, 1 µl mouse anti-Myc-Tag IgG, with or without antibody; lysis in buffer A (30 mM HEPES pH 8.8, 20 mM KAc, 3 mM magnesium acetate, 1 mM DTT, 1% Nonidet P-40); Western analysis; conditions: partners not purified
T1 construct: chromosomal Myc-tagged allele; also called ABCE1/RLI1; source: chromosomal Myc-tagged allele, yeast strain YDH353, in whole cell extract

[2] = biological target: T2, TAP-tagged HCR1 (yeast, UniProt Q05775 1-265); assay: pull-down; TAP-tagged chromosomal alleles; cells treated with 1% HCHO before harvest; WCE (1 mg protein) in buffer B (50 mM Tris-HCl pH 7.6, 150 mM NaCl, 0.05% Tween 20) with or without 0.1 mg/ml RNase A; IgG Sepharose 6 Fast Flow beads, 2 h at 4°C; eluted by boiling in SDS buffer or by TEV protease; untagged wt strain as control; Western analysis; conditions: partners not purified
T2 construct: eIF3j/HCR1, yeast; chromosomal TAP-tagged allele; also called eIF3j/HCR1; source: chromosomal TAP-tagged allele, yeast strain H553, cells treated with 1% HCHO, in whole cell extract
T2 sequence (Q05775 whole entry): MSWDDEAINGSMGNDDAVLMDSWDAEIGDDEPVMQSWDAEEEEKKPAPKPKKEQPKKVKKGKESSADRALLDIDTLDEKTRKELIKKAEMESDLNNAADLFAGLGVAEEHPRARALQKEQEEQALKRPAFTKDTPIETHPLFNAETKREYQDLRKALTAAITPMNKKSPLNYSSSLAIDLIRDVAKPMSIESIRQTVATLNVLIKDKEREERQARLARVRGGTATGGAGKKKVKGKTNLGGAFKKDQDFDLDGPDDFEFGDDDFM

percent of input co-precipitated [1] | percent of input co-purified [2] | Binder
~13 % of the input | 9 ± 0.2% | eukaryotic release factor 3 (eRF3) (natural protein, yeast (endogenous in yeast cells), UniProt P05453 1-685, looked up, eRF3 (SUP35), yeast; also called SUP35; source: endogenous, yeast whole cell extract) MSDSNQGNNQQNYQQYSQNGNQQQGNNRYQGYQAYNAQAQPAGGYYQNYQGYSGYQQGGYQQYNPDAGYQQQYNPQGGYQQYNPQGGYQQQFNPQGGRGNYKNFNYNNNLQGYQAGFQPQSQGMSLNDFQKQQKQAAPKPKKTLKLVSSSGIKLANATKKVGTKPAESDKKEEEKSAETKEPTKEPTKVEEPVKKEEKPVQTEEKTEEKSELPKVEDLKISESTHNTNNANVTSADALIKEQEEEVDDEVVNDMFGGKDHVSLIFMGHVDAGKSTMGGNLLYLTGSVDKRTIEKYEREAKDAGRQGWYLSWVMDTNKEERNDGKTIEVGKAYFETEKRRYTILDAPGHKMYVSEMIGGASQADVGVLVISARKGEYETGFERGGQTREHALLAKTQGVNKMVVVVNKMDDPTVNWSKERYDQCVSNVSNFLRAIGYNIKTDVVFMPVSGYSGANLKDHVDPKECPWYTGPTLLEYLDTMNHVDRHINAPFMLPIAAKMKDLGTIVEGKIESGHIKKGQSTLLMPNKTAVEIQNIYNETENEVDMAMCGEQVKLRIKGVEEEDISPGFVLTSPKNPIKSVTKFVAQIAIVELKSIIAAGFSCVMHVHTAIEEVHIVKLLHKLEKGTNRKSKKPPAFAKKGMKVIAVLETEAPVCVETYQDYPQLGRFTLRDQGTTIAIGKIVKIAE
– | ~58% | ABCE1/RLI1 (natural protein, yeast (endogenous in yeast cells), UniProt Q03195 1-608, looked up, source: endogenous, yeast whole cell extract) MSDKNSRIAIVSADKCKPKKCRQECKRSCPVVKTGKLCIEVTPTSKIAFISEILCIGCGICVKKCPFDAIQIINLPTNLEAHVTHRYSANSFKLHRLPTPRPGQVLGLVGTNGIGKSTALKILAGKQKPNLGRFDDPPEWQEIIKYFRGSELQNYFTKMLEDDIKAIIKPQYVDNIPRAIKGPVQKVGELLKLRMEKSPEDVKRYIKILQLENVLKRDIEKLSGGELQRFAIGMSCVQEADVYMFDEPSSYLDVKQRLNAAQIIRSLLAPTKYVICVEHDLSVLDYLSDFVCIIYGVPSVYGVVTLPASVREGINIFLDGHIPAENLRFRTEALQFRIADATEDLQNDSASRAFSYPSLKKTQGDFVLNVEEGEFSDSEILVMMGENGTGKTTLIKLLAGALKPDEGQDIPKLNVSMKPQKIAPKFPGTVRQLFFKKIRGQFLNPQFQTDVVKPLRIDDIIDQEVQHLSGGELQRVAIVLALGIPADIYLIDEPSAYLDSEQRIICSKVIRRFILHNKKTAFIVEHDFIMATYLADKVIVFEGIPSKNAHARAPESLLTGCNRFLKNLNVTFRRDPNSFRPRINKLDSQMDKEQKSSGNYFFLDNTGI
~22 % of the input | ~2% | eukaryotic release factor 1 (eRF1) (natural protein, yeast (endogenous in yeast cells), UniProt P12385 1-437, looked up, eRF1 (SUP45), yeast; also called SUP45; source: endogenous, yeast whole cell extract) MDNEVEKNIEIWKVKKLVQSLEKARGNGTSMISLVIPPKGQIPLYQKMLTDEYGTASNIKSRVNRLSVLSAITSTQQKLKLYNTLPKNGLVLYCGDIITEDGKEKKVTFDIEPYKPINTSLYLCDNKFHTEVLSELLQADDKFGFIVMDGQGTLFGSVSGNTRTVLHKFTVDLPKKHGRGGQSALRFARLREEKRHNYVRKVAEVAVQNFITNDKVNVKGLILAGSADFKTDLAKSELFDPRLACKVISIVDVSYGGENGFNQAIELSAEALANVKYVQEKKLLEAYFDEISQDTGKFCYGIDDTLKALDLGAVEKLIVFENLETIRYTFKDAEDNEVIKFAEPEAKDKSFAIDKATGQEMDVVSEEPLIEWLAANYKNFGATLEFITDKSSEGAQFVTGFGGIGAMLRYKVNFEQLVDESEDEYYDEDEGSDYDFI
